Measured values from paper PMC5110118.

Target: C-terminal NanoLuc luciferase fragment, residues 66–171 (66C), bacterial construct
Assay: split reporter

fold increase in luminescence over 66C alone: 10 fold
Substance: N-terminal NanoLuc luciferase fragment, residues 1–65 (N65), bacterial construct (domain or fragment)
